Test results taken from patent US12365732 (23ANDME, dated 2025).
Positions count from the first letter of the chain named. In names and notes the source's numbering stands.

T1: cynomolgus monkey CD96 on cynomolgus monkey PBMCs (cynomolgus monkey, UniProt A0A2K5TWV6 22-569)
T1 construct: whole, on cells
T1 sequence: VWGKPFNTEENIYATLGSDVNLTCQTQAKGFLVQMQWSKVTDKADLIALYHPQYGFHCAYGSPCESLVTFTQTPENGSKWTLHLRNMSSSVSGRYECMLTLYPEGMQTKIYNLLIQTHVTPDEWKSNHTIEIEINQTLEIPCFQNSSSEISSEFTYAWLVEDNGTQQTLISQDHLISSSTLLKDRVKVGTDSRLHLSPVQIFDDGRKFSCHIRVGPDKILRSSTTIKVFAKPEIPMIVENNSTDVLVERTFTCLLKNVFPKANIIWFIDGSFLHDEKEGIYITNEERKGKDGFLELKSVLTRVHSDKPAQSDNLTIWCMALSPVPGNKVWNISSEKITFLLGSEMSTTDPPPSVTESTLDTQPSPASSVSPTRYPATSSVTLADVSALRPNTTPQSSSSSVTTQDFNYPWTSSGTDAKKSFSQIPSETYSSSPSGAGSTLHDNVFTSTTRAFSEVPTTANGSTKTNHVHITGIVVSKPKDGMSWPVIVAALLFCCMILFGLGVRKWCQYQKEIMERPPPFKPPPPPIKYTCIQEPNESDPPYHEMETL

T2: hu-CD96 isoform 2 on CHO cells (human, UniProt P40200 22-585)
T2 construct: also called CHO-CD96 (isoform 2); CD96-CHOs
T2 sequence: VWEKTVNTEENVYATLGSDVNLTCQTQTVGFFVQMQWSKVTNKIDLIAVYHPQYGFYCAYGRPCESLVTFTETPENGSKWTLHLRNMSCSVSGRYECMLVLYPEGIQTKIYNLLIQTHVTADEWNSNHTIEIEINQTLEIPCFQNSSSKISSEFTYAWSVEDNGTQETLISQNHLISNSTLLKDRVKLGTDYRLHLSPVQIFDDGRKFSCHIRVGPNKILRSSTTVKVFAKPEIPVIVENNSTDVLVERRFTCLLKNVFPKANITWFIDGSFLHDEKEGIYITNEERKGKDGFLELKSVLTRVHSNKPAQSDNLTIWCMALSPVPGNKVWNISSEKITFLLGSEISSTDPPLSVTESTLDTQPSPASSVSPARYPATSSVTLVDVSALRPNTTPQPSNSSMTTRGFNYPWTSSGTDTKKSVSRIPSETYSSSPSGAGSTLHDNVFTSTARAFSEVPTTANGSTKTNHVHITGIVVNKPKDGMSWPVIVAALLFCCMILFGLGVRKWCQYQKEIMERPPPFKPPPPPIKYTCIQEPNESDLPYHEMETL

B1: mAb1.v7.NGS11 IgG (antibody, V domains shown)
VH: EVQLVQSGAEVKKPGASVKVSCKASGFTFTNNFMHWVRQAPGQGLEWIGFIHANSGITNINEKFKNRVTMTTDTSTSTAYMELRSLRSEDTAVYYCRSDGVYEGYFDYWGQGTLVTVSS
VL: DIQLTQSPSSLSASVGDRVTITCKASQNVGTAIVWYQQKPGKAPKVLIYSASTRYTGVPSRFSGSGSGTDFTLTISSLQPEDFATYYCQQYSSSPLTFGQGTKVEIKG
notes: human IgG1 N297G
B2: mAb1.v7.NGS10 IgG (antibody, V domains shown)
VH: B1 VH with V101I
VL: B1 VL
notes: human IgG1 N297G
B3: mAb1.v7.NGS9 IgG (antibody, V domains shown)
VH: B1 VH with F50M
VL: B1 VL
notes: human IgG1 N297G
B4: h10G1 IgG (humanized 10G1) (antibody, V domains shown)
VH: EIQLVQSGSELKKPGASVKVSCKASGYPFTTYGMSWVRQAPGQGLEWMGWINTDSGVPTYADDFKGRFVFSLDTSVSTAYLQISSLKAEDTAVYFCARNIYYGWGNFDYWGQGTLVTVSS
VL: EIVMTQSPDFQSVTPKEKVTITCRASQDIYRNLHWYQQKPDQTPKLLIKHASDSISGIPSRFSGSGSGTDFTLTINSLEAEDAAAYYCLQGYSMPYTFGGGTKVEIKG
notes: human IgG1 N297G
B5: mAb1.v7 IgG (humanized 12F8) (antibody, V domains shown)
VH: B1 VH with F33W, F50M, A53P, V101T
VL: B1 VL
notes: human IgG1 N297G
B6: 10G1 (clone 10G1.3G8), purified hybridoma antibody (antibody, V domains shown)
VH: QIQLVQSGPELKKPGETVKISCKASGYPFTTYGMSWVKQAPGKGLKWMGWINTDSGVPTYADDFKGRFAFSLETSANTAYLQINSLKNEDAATYFCARNIYYGWGNFDYWGQGTILTVSS
VL: DILMTQSPTTLSVTPGETVSLSCRASQDIYRNLHWYQQKSQGTPRLLIKHASDSISGIPSRFTGSGSGTDFTLSINSVKPEDEGIYYCLQGYSMPYTFGGGTKLEIK
notes: murine hybridoma IgG
B7: 7E5, purified hybridoma antibody (antibody, V domains shown)
VH: QVQLKESGPGLVAPSQSLSIICTVSGFSLTNYGIHWIRQPPGKGLEWLGIIWAGGSTNYNSALMSRLTISKDNSKSQVFLKMNSLQTNDTAIYYCARVSMMGFAYWGQGTLVTVSA
VL: QAVVTQESALTTSPGETVTLTCRSSTGAVTTSNYANWVQEKPDHLFTGLIGGTNNRAPGVPARFSGSLIGDKAALTITGAQTEDEAIYFCSLWYGSHWVFGGGTKLTVL
notes: murine hybridoma IgG
B8: 9H4, purified hybridoma antibody (antibody, V domains shown)
VH: EVQLLETGGGLVKSGGSLKLSCAASGFTFSDYYMYWVRQTPEKRLEWVAAISDDGTYTYYPDSVKGRFTISRDNANNYLYLQMSSLKSEDTAIYYCAKAGSYDYFDVWGAGTTVTVSS
VL: DIVLTQSPASLAVSLGQRAIISCKASQSVTFADTGLMHWYQQKPGQQPKLLIYRASNLEVGVPTRFSGSGSGTDFTLNIHPVEEEDVATYYCQQSREYPWTFGGGTKLEIK
notes: murine hybridoma IgG

These binders were tested against T1, cynomolgus monkey CD96 on cynomolgus … (assay: FACS, Ab 16 nM).
Procedure: The ability of the anti-CD96 antibodies to bind primary immune cells from human and cynomolgus monkey with lower level of receptor expression was measured. Human PBMCs (StemCell Technologies, catalog #70025) and cynomolgus monkey PBMCs (Primate Biologicals, catalog #CM-MC) were incubated with human TruStain FcX (Biolegend, catalog #422302) for 10 minutes at 4° C., followed by incubation with an anti-CD96 antibody for 20 minutes at 4° C. Cells were washed and the anti-CD96 antibody binding was detected by incubation with anti-mouse IgG-PE (Thermo Fisher, catalog #M30204) or anti-human IgG (Fab) 2-PE (Thermo Fisher, catalog #H10104) for 20 minutes at 4° C. Cells were washed, and immune subtypes were labeled with anti-CD3 (BD, catalog #557705), anti-CD4 (Biolegend, catalog #317424) and anti-CD8 (BD, catalog #557760) for 20 minutes at 4° C. Cell binding was analyzed by flow cytometry with a CytoFLEX (Beckman Coulter). Binding curves were calculated as a percentage of cells positive for bound antibody in the cell type of interest.

For B1, which “% positive” value is on record?
The value was 80.8%.

With B2 as the binder, how does the “% positive” value read?
Its value is 78.5%.

B3 was tested. Which “% positive” value did it give?
Its value is 76.1%.

B4 was tested. Which “% positive” value did it give?
The value was 66.1%.

What follows are binders tested against T2, hu-CD96 isoform 2 on CHO cells (assay: FACS, CD155-Fc-FLAG 10 nM, Ab 4 nM).
Procedure: (§1) CHO cells stably expressing isoform 2 of hu-CD96 (Origene, catalog #RC221005) were incubated with anti-CD96 antibodies for 20 minutes at 4° C. The cells were washed, and then incubated with 10 nM human CD155-Fc-FLAG for 30 minutes at 4° C. Cells were washed, and then human CD155-Fc-FLAG binding was detected by incubation with anti-FLAG-APC (Columbia Biosciences, catalog #D3-1718-1MG) for 20 minutes at 4° C. Cell binding was analyzed by flow cytometry with a CytoFLEX (Beckman Coulter). CD155 binding is represented as median fluorescence intensity (MedFI).
(§2) As shown in Table 20 (below), the anti-CD96 antibodies, mAb1.v7.NGS8, mAb1.v7.NGS9, mAb1.v7.NGS10, mAb1.v7.NGS11, and h10G1 inhibited soluble hu-CD155 binding to CD96-expressing CHO cells dose-dependently and potently. The antibody NK92.39 (Fuchs et al., 2004; Biolegend catalog #338405) inhibited receptor binding similarly.

Which “CD155-Fc binding (MedFI)” value does the source give for B1 here?
Its value is 4860 MedFI.

How did the “CD155-Fc binding (MedFI)” value turn out when B2 was run?
The value was 4940 MedFI.

For B3, which “CD155-Fc binding (MedFI)” value is on record?
Its value is 6100 MedFI.

Which “CD155-Fc binding (MedFI)” value does the source give for B4 here?
Its value is 4860 MedFI.

What follows are binders tested against T2, hu-CD96 isoform 2 on CHO cells (assay: FACS, Ab 2 nM).
Procedure: Isoform 1 of hu-CD96 (Origene, catalog #RC213845) was transiently expressed in HEK293T cells following standard lipofectamine or Fugene transfection protocol. […] Cells were washed, and binding was detected by incubation with anti-mouse IgG-FITC (Biolegend, catalog #406001) for 20 minutes at 4° C. Cell binding was analyzed by flow cytometry with a CytoFLEX (Beckman Coulter). Binding curves were calculated as a percentage of cells positive for bound antibody.
Isoform 2 of hu-CD96 (DNA construct: Origene, catalog #RC221005) was expressed on a single-cell-clone-derived CHO stable cell line. Binding of the anti-CD96 antibodies to the CHO cells were determined as described above with isoform 1 of hu-CD96.

For B5, which “% positive” value is on record?
The value was 42.4%.

B6 was tested. Which “% positive” value did it give?
The value was 34.9%.

With B7 as the binder, how does the “% positive” value read?
Its value is 53.3%.

B8 was tested. Which “% positive” value did it give?
Its value is 44.2%.

These binders were tested against T2, hu-CD96 isoform 2 on CHO cells (assay: FACS, CD155-Fc-FLAG 10 nM, Ab 100 nM).
Procedure: as §1, §2

For B1, which “CD155-Fc binding (MedFI)” value is on record?
Its value is 4210 MedFI.

How did the “CD155-Fc binding (MedFI)” value turn out when B2 was run?
Its value is 5110 MedFI.

For B3, which “CD155-Fc binding (MedFI)” value is on record?
Its value is 4140 MedFI.

For B4, which “CD155-Fc binding (MedFI)” value is on record?
The value was 5120 MedFI.
